Article PMC10881398, “O-glycosylation of the transcription factor SPATULA promotes style development in Arabidopsis” (Nature Plants, 2024)
Blank lines part the entries; values can stand above or below the binder they belong to.

Legend:
[1] = molecular target: T1, 6xHis-SPT (SPATULA) (Arabidopsis thaliana, UniProt Q9FUA4 1-373); assay: EMSA; legend: binding abolished; text: strongly abolished; EMSA: 150 ng DNA, '1x' buffer as printed 250 mM Tris-HCl pH 8.0, 500 mM NaCl, 25% glycerol, 10 mM DTT; on ice 20 min; 5% native acrylamide gel, 1x TBE, EB stain; settings: protein: recombinant; tags: 6xHis N-terminal (pRSFDuet); chain copies: 2; label: none (EB stain); blunt
T1 sequence: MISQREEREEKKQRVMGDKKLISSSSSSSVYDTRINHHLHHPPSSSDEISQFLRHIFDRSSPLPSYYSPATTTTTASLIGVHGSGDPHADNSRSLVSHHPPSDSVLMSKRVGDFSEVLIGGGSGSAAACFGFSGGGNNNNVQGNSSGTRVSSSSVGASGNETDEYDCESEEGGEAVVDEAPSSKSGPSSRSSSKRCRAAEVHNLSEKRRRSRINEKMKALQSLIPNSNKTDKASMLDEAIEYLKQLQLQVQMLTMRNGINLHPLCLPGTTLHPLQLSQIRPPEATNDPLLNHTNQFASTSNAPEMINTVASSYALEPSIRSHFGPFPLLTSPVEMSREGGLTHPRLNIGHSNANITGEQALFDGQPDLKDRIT

[2] = molecular target: T2, IND–RFP (35S::IND–RFP) (Arabidopsis thaliana, UniProt O81313 1-198); assay: FRET or BRET; FRET–FLIM in nuclei of co-infiltrated N. benthamiana leaves; donor SPT–EGFP, acceptor RFP fusions; efficiency E = 1 − τDA/τD with SPT–EGFP;RFP–NLS as the donor-only reference; with or without co-expressed SEC–3xHA or SPY–3xHA; settings: partners not purified
T2 construct: INDEHISCENT (IND), bHLH transcription factor, Arabidopsis thaliana; also called INDEHISCENT; source: N. benthamiana leaves, Agrobacterium-infiltrated, in nuclei of leaf cells
T2 sequence (looked up): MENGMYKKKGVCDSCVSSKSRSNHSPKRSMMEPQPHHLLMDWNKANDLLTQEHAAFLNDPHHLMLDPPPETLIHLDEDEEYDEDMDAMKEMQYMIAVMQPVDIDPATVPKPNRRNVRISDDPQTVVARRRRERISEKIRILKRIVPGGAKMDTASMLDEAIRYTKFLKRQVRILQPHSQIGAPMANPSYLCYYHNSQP

[3] = molecular target: T3, HEC1–RFP (35S::HEC1–RFP) (Arabidopsis thaliana, UniProt Q9FHA7 1-241); assay: as above; settings: partners not purified
T3 construct: HECATE 1 (HEC1), bHLH transcription factor, Arabidopsis thaliana; the cloning of this construct is not described; the methods describe the FRET–FLIM constructs of SPT and IND only; also called HECATE 1; source: N. benthamiana leaves, Agrobacterium-infiltrated, in nuclei of leaf cells
T3 sequence (looked up): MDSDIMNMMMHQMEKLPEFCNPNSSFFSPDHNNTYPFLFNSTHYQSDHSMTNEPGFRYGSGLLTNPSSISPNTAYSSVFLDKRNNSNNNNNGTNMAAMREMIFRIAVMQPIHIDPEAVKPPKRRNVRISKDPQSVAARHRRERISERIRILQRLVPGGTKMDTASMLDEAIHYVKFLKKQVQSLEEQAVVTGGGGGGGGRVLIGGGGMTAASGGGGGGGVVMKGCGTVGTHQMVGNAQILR

[4] = molecular target: the molecule itself; assay: as above

B1: 171-bp pPID G-box mutant (CACGTG to TGATGA) (dsDNA)
DNA 1: GCACCCCTATAATATGCCTAGAGGAAATAAGAAGAAAAAATAATGGGGAAAAAGAGAAGCTACTGCTACACTTTCAGGTGATGAACAACGTCTCATGATGATCATATATCTTACGTCATCAAGTCCTCTTTTTCTCTCTTTCACTTTTCTGTTTACCTCTCTCACGCGTTG
DNA 2: CAACGCGTGAGAGAGGTAAACAGAAAAGTGAAAGAGAGAAAAAGAGGACTTGATGACGTAAGATATATGATCATCATGAGACGTTGTTCATCACCTGAAAGTGTAGCAGTAGCTTCTCTTTTTCCCCATTATTTTTTCTTCTTATTTCCTCTAGGCATATTATAGGGGTGC
- binding result [1]: no binding

- FRET efficiency [2]: 9.6%
- FRET efficiency [3]: 7.4%
B2: SPT–GFP (35S::SPT::GFP) (natural protein, Arabidopsis thaliana, UniProt Q9FUA4 1-373, looked up)
chain: T1 sequence
notes: SPATULA (SPT), Arabidopsis thaliana; in the self-association row the second copy carried RFP in place of EGFP (35S::SPT–RFP); also called SPT–EGFP; SPT–RFP (the second copy in the homodimer test); source: N. benthamiana leaves, Agrobacterium-infiltrated, in nuclei of leaf cells
- FRET efficiency [4]: 5.7%
